Biological target: the molecule itself
Experiment: analytical ultracentrifugation (sedimentation velocity) in buffer with 0.4-0.6 M GuHCl; self-association of the enzyme
Method: Analytical ultracentrifugation. Velocity sedimentation experiments were performed using an XL-A analytical ultracentrifuge (Beckman Instruments, Palo Alto, Calif.) with an An60-Ti rotor. 11β-HSD1 in 50 mM Tris-HCl, pH 8.0: 1 mM TCEP and increasing concentrations of GuHCl (0-2.0 M) was centrifuged at 40,000 rpm. Solutions containing the same components except the protein were used as references. Scans were collected every 5 min at 280 nm absorption wavelength and the radial distance of the sedimenting boundary r was determined. The sedimentation coefficient was calculated by the gradient of the plot of ln(r) vs ω²t, where ω was the angular velocity and t was the time.
The association state of 11β-HSD1 was investigated by analytical ultracentrifugation. […] When incubated in buffer containing 0.4 M GuHCl, the guinea pig enzyme appeared to be constituted by two major populations (FIG. 5B). This behavior was even more pronounced at 0.6 M GuHCl (FIG. 5C). A molecular weight of approximately 60 kDa can be derived from the sedimentation coefficient of the larger peak, corresponding to a dimeric 11β-HSD1 population, while the second peak may originate from a smaller portion of tetrameric enzyme.

B1: recombinant guinea pig 11β-hydroxysteroid dehydrogenase type 1 (11β-HSD1), catalytic domain with His6 tag (enzyme)
chain: MGSSHHHHHHSSGLVPRGSHMNEKFRPEMLQGKKVIVTGASKGIGREIAYHLAKMGAHVVVTARSKEALQKVVARCLELGAASAHYIAGSMEDMTFAEEFVAEAGNLMGGLDMLILNHVLYNRLTFFHGEIDNVRKSMEVNFHSFVVLSVAAMPMLMQSQGSIAVVSSVAGKITYPLIAPYSASKFALDGFFSTLRSEFLVNKVNVSITLCILGLIDTETAIKATSGIYLGPASPKEECALEIIKGTALRQDEMYYVGSRWVPYLLGNPGRKIMEFLSAAEYNWDNVLSNEKLYGRWA
notes: also called guinea pig 11β-HSD1; guinea pig enzyme
B1: binds.
